In patent US7910549:

Target: monoclonal antibody M75 (MAb M75), secreted by hybridoma VU-M75, ATCC HB 11128
Assay: competition ELISA (peptide against immobilized GST-MN for M75)

IC50: 1 ng/mL
B1: oligopeptide … (aa 51-72) [SEQ ID NO: 104] (peptide)
peptide: GGSSGEDDPLGEEDLPSEEDSP
